# Data as given in patent publication US20210032365A1 (Chugai, published 2021).
# T1: human C1s (human, UniProt P09871 16-688)
# T1 construct: also called hC1s; serum-derived human C1s (CompTech)
# T1 sequence: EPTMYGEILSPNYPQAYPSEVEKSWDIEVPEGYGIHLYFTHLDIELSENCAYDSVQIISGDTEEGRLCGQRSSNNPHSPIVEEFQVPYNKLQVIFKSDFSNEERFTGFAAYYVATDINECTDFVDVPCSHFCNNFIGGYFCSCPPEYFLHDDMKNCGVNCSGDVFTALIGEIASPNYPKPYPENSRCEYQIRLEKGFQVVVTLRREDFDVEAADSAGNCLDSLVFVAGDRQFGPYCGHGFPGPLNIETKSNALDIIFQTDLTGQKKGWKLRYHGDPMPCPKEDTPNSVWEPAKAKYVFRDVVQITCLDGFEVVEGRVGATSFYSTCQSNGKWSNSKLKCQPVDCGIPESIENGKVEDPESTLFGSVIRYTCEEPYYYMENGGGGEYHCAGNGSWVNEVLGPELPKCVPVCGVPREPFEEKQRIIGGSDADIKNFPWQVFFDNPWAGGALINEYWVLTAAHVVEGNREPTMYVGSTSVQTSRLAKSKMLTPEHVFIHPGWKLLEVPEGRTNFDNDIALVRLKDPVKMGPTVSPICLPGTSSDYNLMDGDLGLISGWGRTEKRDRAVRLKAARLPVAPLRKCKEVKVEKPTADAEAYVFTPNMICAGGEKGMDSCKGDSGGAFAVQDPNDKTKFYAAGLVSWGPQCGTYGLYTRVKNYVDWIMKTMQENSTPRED
# T2: human C1s (human, UniProt P09871 16-688)
# T2 construct: Analyte in the Biacore assays; also called hC1s; serum-derived human C1s (CompTech)
# T2 sequence: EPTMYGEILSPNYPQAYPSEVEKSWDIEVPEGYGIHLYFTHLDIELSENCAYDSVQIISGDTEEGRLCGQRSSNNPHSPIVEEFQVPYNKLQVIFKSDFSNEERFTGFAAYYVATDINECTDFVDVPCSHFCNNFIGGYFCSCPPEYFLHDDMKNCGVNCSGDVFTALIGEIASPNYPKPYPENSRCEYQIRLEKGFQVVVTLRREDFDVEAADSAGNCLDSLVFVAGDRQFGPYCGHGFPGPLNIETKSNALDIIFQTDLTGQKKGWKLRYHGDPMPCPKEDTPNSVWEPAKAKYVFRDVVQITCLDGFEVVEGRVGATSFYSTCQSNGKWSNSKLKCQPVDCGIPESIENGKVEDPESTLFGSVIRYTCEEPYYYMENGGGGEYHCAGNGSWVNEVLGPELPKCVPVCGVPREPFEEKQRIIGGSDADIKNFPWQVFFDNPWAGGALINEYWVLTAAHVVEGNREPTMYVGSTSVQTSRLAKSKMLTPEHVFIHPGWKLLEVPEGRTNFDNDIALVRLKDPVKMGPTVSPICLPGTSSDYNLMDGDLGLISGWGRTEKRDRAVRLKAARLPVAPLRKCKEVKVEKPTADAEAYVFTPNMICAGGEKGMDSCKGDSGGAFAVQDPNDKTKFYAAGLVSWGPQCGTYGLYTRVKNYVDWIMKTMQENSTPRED
# B1: C1_IPN92H0281-SG4GK/IPN93L0024-SK1 (antibody, human IgG4 S228P, kappa, name in Kabat numbering)
# heavy: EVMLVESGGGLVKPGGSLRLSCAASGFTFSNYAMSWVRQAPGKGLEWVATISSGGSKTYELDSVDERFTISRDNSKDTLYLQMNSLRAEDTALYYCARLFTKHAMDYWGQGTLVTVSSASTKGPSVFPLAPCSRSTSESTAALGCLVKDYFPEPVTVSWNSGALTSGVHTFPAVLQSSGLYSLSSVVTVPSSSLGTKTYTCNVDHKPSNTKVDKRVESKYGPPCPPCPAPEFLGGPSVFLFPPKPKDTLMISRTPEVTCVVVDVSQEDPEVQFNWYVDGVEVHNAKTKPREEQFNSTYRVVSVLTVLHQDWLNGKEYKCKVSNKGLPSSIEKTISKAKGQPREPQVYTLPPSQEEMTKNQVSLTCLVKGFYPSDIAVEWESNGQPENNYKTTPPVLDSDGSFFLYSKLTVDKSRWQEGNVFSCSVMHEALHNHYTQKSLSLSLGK
# light: QIVLTQSPATLSLSPGERATLSCTASSSVSSSYLHWYQQKPGKAPKLWIYSTSNLASGVPSRFSGSGSGTDYTLTISSLQPEDFATYYCHQYYRLHPITFGQGTKLEIKRTVAAPSVFIFPPSDEQLKSGTASVVCLLNNFYPREAKVQWKVDNALQSGNSQESVTEQDSKDSTYSLSSTLTLSKADYEKHKVYACEVTHQGLSSPVTKSFNRGEC
# notes: also called IPN92H0281/IPN93L0024
# B2: C1_IPN92H0282-SG4GK/IPN93L0091-SK1 (antibody, human IgG4 S228P, kappa, name in Kabat numbering, V domains shown)
# VH: EVMLVESGGGLVKPGGSLRLSCAASGFTFSNYAMSWVRQAPGKGLEWVATISSGGSHTYELDSVDERFTISRDNSKDTLYLQMNSLRAEDTALYYCARLFTKHAMDYWGQGTLVTVSS
# VL: QIVLTQSPATLSLSPGERATLSCTASSSVSSSRLHWYQQKPGKAPKLWIYSTSNLASGVPSRFSGSGSGTDYTLTISSLQPEDFATYYCHQYYRLHPITFGQGTKLEIKR
# notes: also called IPN92H0282/IPN93L0091
# B3: C1_IPN92H0033-SG4GK/IPN93L0090-SK1 (antibody, human IgG4 S228P, kappa, name in Kabat numbering, V domains shown)
# VH: EVMLVESGGGLVKPGGSLRLSCAASGFTFSNYAMSWVRQAPGKGLEWVATISSGGSHTYYLDSVKGRFTISRDNSKDTLYLQMNSLRAEDTALYYCARLFTGHAMDYWGQGTLVTVSS
# VL: QIVLTQSPATLSLSPGERATLSCTASSSVSSSKLHWYQQKPGKAPKLWIYSTSNLASGVPSRFSGSGSGTDYTLTISSLQPEDFATYYCHQYYRLHPITFGQGTKLEIKR
# notes: VL substitutions from IPN009VK3, Kabat numbering; also called IPN92H0033/IPN93L0090
# B4: C1_IPN92H0079-SG4GK/IPN93L0024-SK1 (antibody, human IgG4 S228P, kappa, name in Kabat numbering, V domains shown)
# VH: EVMLVESGGGLVKPGGSLRLSCAASGFTFSNKAMSWVRQAPGKGLEWVATISSGGSHTYYLDSVKGRFTISRDNSKDTLYLQMNSLRAEDTALYYCARLFTGHAMDYWGQGTLVTVSS
# VL: QIVLTQSPATLSLSPGERATLSCTASSSVSSSYLHWYQQKPGKAPKLWIYSTSNLASGVPSRFSGSGSGTDYTLTISSLQPEDFATYYCHQYYRLHPITFGQGTKLEIKR
# notes: Substitutions from IPN009VH2, Kabat numbering; also called IPN92H0079/IPN93L0024
# B5: C1_IPN92H0288-SG4GK/IPN93L0212-SK1 (antibody, human IgG4 S228P, kappa, name in Kabat numbering, V domains shown)
# VH: EVMLVESGGGLVKPGGSLRLSCAASGFTFSNYAMSWVRQAPGKGLEWVATISSGGSHTYELDSVDGRFTISRDNSKDTLYLQMNSLRAEDTALYYCARLFTKHAMDYWGQGTLVTVSS
# VL: QIVLTQSPATLSLSPGERATLSCTASSEVSESRLHWYQQKPGKAPKLWIYSTSNLASGVPSRFSGSGSGTDYTLTISSLQPEDFATYYCHQYYRLHPITFGQGTKLEIKR
# notes: VH = IPN009VH2 with Y59E/K64D/G98K/Y99H (Kabat); also called IPN92H0288/IPN93L0212
# B6: C1_IPN92H0033-SG4GK/IPN93L0024-SK1 (antibody, human IgG4 S228P, kappa)
# heavy: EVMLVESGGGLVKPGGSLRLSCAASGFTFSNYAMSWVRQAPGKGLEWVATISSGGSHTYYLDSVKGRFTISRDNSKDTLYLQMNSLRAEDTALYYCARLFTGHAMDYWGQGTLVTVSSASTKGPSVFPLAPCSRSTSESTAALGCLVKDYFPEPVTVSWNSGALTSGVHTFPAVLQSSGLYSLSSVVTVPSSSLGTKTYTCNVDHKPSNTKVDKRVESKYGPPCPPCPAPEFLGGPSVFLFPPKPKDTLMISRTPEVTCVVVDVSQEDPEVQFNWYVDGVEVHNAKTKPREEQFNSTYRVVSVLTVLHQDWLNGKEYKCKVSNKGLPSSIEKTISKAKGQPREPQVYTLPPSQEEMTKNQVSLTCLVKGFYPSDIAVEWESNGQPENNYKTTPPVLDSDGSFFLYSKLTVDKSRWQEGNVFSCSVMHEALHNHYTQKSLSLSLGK
# light: QIVLTQSPATLSLSPGERATLSCTASSSVSSSYLHWYQQKPGKAPKLWIYSTSNLASGVPSRFSGSGSGTDYTLTISSLQPEDFATYYCHQYYRLHPITFGQGTKLEIKRTVAAPSVFIFPPSDEQLKSGTASVVCLLNNFYPREAKVQWKVDNALQSGNSQESVTEQDSKDSTYSLSSTLTLSKADYEKHKVYACEVTHQGLSSPVTKSFNRGEC
# notes: VH Y99H, VL P95H against the parent (Kabat); also called IPN92H0033/IPN93L0024
# B7: C1_IPN92H0286-SG4GK/IPN93L0205-SK1 (antibody, human IgG4 S228P, kappa, name in Kabat numbering)
# heavy: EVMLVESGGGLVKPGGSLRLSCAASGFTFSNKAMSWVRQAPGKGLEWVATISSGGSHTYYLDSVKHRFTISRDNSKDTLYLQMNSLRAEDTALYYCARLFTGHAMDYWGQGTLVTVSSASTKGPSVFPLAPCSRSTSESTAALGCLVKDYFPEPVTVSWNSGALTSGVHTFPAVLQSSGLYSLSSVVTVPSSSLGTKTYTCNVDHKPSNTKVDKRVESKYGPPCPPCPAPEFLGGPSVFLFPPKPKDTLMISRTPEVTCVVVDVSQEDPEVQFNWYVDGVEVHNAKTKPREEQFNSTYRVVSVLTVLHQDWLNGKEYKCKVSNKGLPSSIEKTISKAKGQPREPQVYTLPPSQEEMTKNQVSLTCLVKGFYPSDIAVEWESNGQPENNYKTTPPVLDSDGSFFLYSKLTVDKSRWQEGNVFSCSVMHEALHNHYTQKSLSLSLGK
# light: QIVLTQSPATLSLSPGERATLSCTASSSVSSSRLHWYQQKPGKAPKLWIYSTSNLASGVPSRFSGSGSGTDYTLTISSLQPEDFATYYCHQYHRHPPITFGQGTKLEIKRTVAAPSVFIFPPSDEQLKSGTASVVCLLNNFYPREAKVQWKVDNALQSGNSQESVTEQDSKDSTYSLSSTLTLSKADYEKHKVYACEVTHQGLSSPVTKSFNRGEC
# notes: also called IPN92H0286/IPN93L0205
# B8: C1_IPN92H0282-SG4GK/IPN93L0024-SK1 (antibody, human IgG4 S228P, kappa, name in Kabat numbering, V domains shown)
# VH: EVMLVESGGGLVKPGGSLRLSCAASGFTFSNYAMSWVRQAPGKGLEWVATISSGGSHTYELDSVDERFTISRDNSKDTLYLQMNSLRAEDTALYYCARLFTKHAMDYWGQGTLVTVSS
# VL: QIVLTQSPATLSLSPGERATLSCTASSSVSSSYLHWYQQKPGKAPKLWIYSTSNLASGVPSRFSGSGSGTDYTLTISSLQPEDFATYYCHQYYRLHPITFGQGTKLEIKR
# notes: also called IPN92H0282/IPN93L0024
# B9: C1_IPN92H0033-SG4GK/IPN93L0072-SK1 (antibody, human IgG4 S228P, kappa, name in Kabat numbering, V domains shown)
# VH: EVMLVESGGGLVKPGGSLRLSCAASGFTFSNYAMSWVRQAPGKGLEWVATISSGGSHTYYLDSVKGRFTISRDNSKDTLYLQMNSLRAEDTALYYCARLFTGHAMDYWGQGTLVTVSS
# VL: QIVLTQSPATLSLSPGERATLSCTASSSVKSSYLHWYQQKPGKAPKLWIYSTSNLASGVPSRFSGSGSGTDYTLTISSLQPEDFATYYCHQYYRLHPITFGQGTKLEIKR
# notes: VL substitutions from IPN009VK3, Kabat numbering; also called IPN92H0033/IPN93L0072
# B10: C1_IPN92H0061-SG4GK/IPN93L0024-SK1 (antibody, human IgG4 S228P, kappa, name in Kabat numbering, V domains shown)
# VH: EVMLVESGGGLVKPGGSLRLSCAASGFTKSNYAMSWVRQAPGKGLEWVATISSGGSHTYYLDSVKGRFTISRDNSKDTLYLQMNSLRAEDTALYYCARLFTGHAMDYWGQGTLVTVSS
# VL: QIVLTQSPATLSLSPGERATLSCTASSSVSSSYLHWYQQKPGKAPKLWIYSTSNLASGVPSRFSGSGSGTDYTLTISSLQPEDFATYYCHQYYRLHPITFGQGTKLEIKR
# notes: Substitutions from IPN009VH2, Kabat numbering; also called IPN92H0061/IPN93L0024
# B11: C1_IPN92H0281-SG4GK/IPN93L0091-SK1 (antibody, human IgG4 S228P, kappa, name in Kabat numbering, V domains shown)
# VH: EVMLVESGGGLVKPGGSLRLSCAASGFTFSNYAMSWVRQAPGKGLEWVATISSGGSKTYELDSVDERFTISRDNSKDTLYLQMNSLRAEDTALYYCARLFTKHAMDYWGQGTLVTVSS
# VL: QIVLTQSPATLSLSPGERATLSCTASSSVSSSRLHWYQQKPGKAPKLWIYSTSNLASGVPSRFSGSGSGTDYTLTISSLQPEDFATYYCHQYYRLHPITFGQGTKLEIKR
# notes: also called IPN92H0281/IPN93L0091
# Columns and labels:
# [1] = target: T1, human C1s; assay: SPR, Ab captured; pH 7.4, 1.2 mM Ca
# Protocol: (§1) Each antibody was captured onto the sensor surface by protein A/G. Antibody capture levels were aimed at 200 resonance unit (RU). Serum-derived human C1s (CompTech) or recombinant C1s prepared in EXAMPLE 1 was injected at 50 nM, followed by dissociation. The sensor surface was regenerated in each cycle with 10 mM Glycine-HCl, pH 1.5. […] The ratio of KD 5.8+ to KD 7.4+(“KD 5+/7+”) and that of KD 5.8− to KD 7.4+(“KD 5−/7+”) were calculated. When the KD 5+/7+ or KD 5−/7+ of a variant is larger than that of the parent antibody IPN009VH2-SG4GK/IPN009VK3-SK1, that variant is considered to be “pH”- or “pH and Ca”-dependent, respectively. When binding response in 5(+) buffer and/or in 5(−) buffer of a variant is much lower than that of IPN09VH2/IPN009VK3, that variant is also considered as “pH”- and/or “pH and Ca”-dependent. Therefore, such mutations are effective to generate “pH”- and/or “pH and Ca”-dependent antibody. To further enhance “pH” and/or “pH and Ca” dependency, a combination of histidine mutations was conducted. Antibodies with combinations of histidine mutations were evaluated using Biacore by the method described above.
# (§2) C1_1IPN92H0033 (SEQ ID NO: 17)-SG4GK/IPN93L0024 (SEQ ID NO: 18)-SK1 (IPN92H0033/IPN93L0024) was selected for further optimization. Histidine, Lysine, Arginine, aspartic acid, glutamic acid, and glutamine scanning was conducted for CDRs and certain positions of FRs of IPN92H0033/IPN93L0024. Variants with a mutation were generated and purified, and evaluated using Biacore by the method mentioned above. All variants were evaluated using Biacore as mentioned above. Mutations that improved “pH” and/or “pH and Ca” dependency were selected for the combination.
# [2] = target: T2, human C1s; assay: SPR; KD at pH 5.8 (3 uM Ca) over KD at pH 7.4 (1.2 mM Ca)
# Protocol: as §1, §2
# [3] = target: T2, human C1s; assay: SPR (Biacore T200, 37C), Ab captured on protein A/G; pH 5.8, 1.2 mM Ca
# Protocol: as §1, §2
# [4] = target: T2, human C1s; assay: SPR (Biacore T200, 37C), Ab captured on protein A/G; pH 5.8, 3 uM Ca
# Protocol: as §1, §2
# [5] = target: T2, human C1s; assay: SPR; KD at pH 5.8 (1.2 mM Ca) over KD at pH 7.4 (1.2 mM Ca)
# Protocol: as §1, §2
Binder,Kd [1] [nM],koff [1] [s⁻¹],kon [1] [M⁻¹ s⁻¹],KD 5(-)/7(+) [2],Kd [3] [nM],koff [3] [s⁻¹],kon [3] [M⁻¹ s⁻¹],Kd [4] [nM],koff [4] [s⁻¹],kon [4] [M⁻¹ s⁻¹],KD 5(+)/7(+) [5]
B1,2.52,0.001,396000,–,–,–,–,–,–,–,–
B2,1.96,0.000924,471000,–,–,–,–,–,–,–,–
B3,–,–,–,5.13,9.52,0.0055,577000,7.18,0.00427,595000,6.8
B4,–,–,–,2.6,19.3,0.0162,838000,8.75,0.0052,594000,5.7
B5,1.81,0.00117,648000,–,–,–,–,–,–,–,–
B6,–,–,–,1.83,–,0.0045,519000,–,–,–,3
B7,1.58,0.00156,984000,–,–,–,–,–,–,–,–
B8,1.65,0.000632,383000,–,–,–,–,–,–,–,–
B9,–,–,–,4.18,9.12,0.00529,530000,5.72,0.00553,967000,6.7
B10,–,–,–,0.79,11.9,0.022,1.85e+06,5.43,0.00344,633000,1.7
B11,4.72,0.00216,457000,–,–,–,–,–,–,–,–
